Measured values from patent US20160271244A1.

Legend:
[1] = molecular target: gp120 (Table 2, strain not given); assay: Luminex bead assay
[2] = molecular target: recombinant human kynureninase (rhKYNU) (human) (UniProt Q16719); assay: ELISA on plate-bound rhKYNU, antibody titrated
[3] = molecular target: recombinant human kynureninase (rhKYNU) (human) (UniProt Q16719); assay: ELISA on plate-bound rhKYNU, 2F5 titrated (overlay with DP178-Q16L)
[4] = molecular target: recombinant human kynureninase (rhKYNU) (human) (UniProt Q16719); assay: ELISA on plate-bound rhKynureninase, antibody titrated
[5] = molecular target: membrane conjugated gp41-inter; assay: SPR, gp41-inter held by Ni on liposomes captured on the chip, mAb injected; bivalent analyte fit [left panel]
[6] = molecular target: HIV-1 Env gp41 (HIV-1) (UniProt P05877); assay: Luminex bead assay
[7] = molecular target: SSA; assay: Athena autoantigen assay, mAb 12.5 ug/ml
[8] = molecular target: Scl 70; assay: Athena autoantigen assay, mAb 12.5 ug/ml
[9] = molecular target: Sm; assay: Athena autoantigen assay, mAb 12.5 ug/ml
[10] = molecular target: Jo 1; assay: Athena autoantigen assay, mAb 12.5 ug/ml
[11] = molecular target: SSB; assay: Athena autoantigen assay, mAb 12.5 ug/ml
[12] = molecular target: RNP; assay: Athena autoantigen assay, mAb 12.5 ug/ml
[13] = molecular target: Histone; assay: Athena autoantigen assay, mAb 12.5 ug/ml
[14] = molecular target: deglycosylated JRFL gp140 CF (HIV-1); assay: SPR, MAb on the surface, Env injected; JRFL wt DEG 20 (PNGase 20 U/µg); Koff (x10^-3 s-1)
[15] = molecular target: JRFL gp140 (HIV-1); assay: SPR, MAb on the surface, Env injected; JRFFL wt (not deglycosylated); Koff (x10^-3 s-1)
[16] = molecular target: deglycosylated JRFL gp140 CF (HIV-1); assay: SPR, MAb on the surface, Env injected; JRFL wt DEG 5 (PNGase 5 U/µg); Kon (x10^3 M-1s-1)
[17] = molecular target: deglycosylated JRFL gp140 CF (HIV-1); assay: SPR, MAb on the surface, Env injected; JRFL wt DEG 500 (PNGase 500 U/µg); Kon (x10^3 M-1s-1)
[18] = molecular target: membrane conjugated gp41-inter; assay: SPR, gp41-inter held by Ni on liposomes captured on the chip, mAb injected; bivalent analyte fit [right panel]
[19] = molecular target: deglycosylated JRFL gp140 CF (HIV-1); assay: SPR, MAb on the surface, Env injected; JRFL wt DEG 20 (PNGase 20 U/µg); Kon (x10^3 M-1s-1)
[20] = molecular target: SSA; assay: Athena autoantigen assay, mAb 50 ug/ml
[21] = molecular target: Jo 1; assay: Athena autoantigen assay, mAb 50 ug/ml
[22] = molecular target: SSB; assay: Athena autoantigen assay, mAb 50 ug/ml
[23] = molecular target: Histone; assay: Athena autoantigen assay, mAb 50 ug/ml
[24] = molecular target: HCV E2 (HCV); assay: Luminex assay, antibody 50 µg/ml
[25] = molecular target: Influenza HA (Wisconsin) (influenza virus); assay: Luminex assay, antibody 50 µg/ml
[26] = molecular target: SSA; assay: Athena autoantigen assay, mAb 6.25 ug/ml
[27] = molecular target: Scl 70; assay: Athena autoantigen assay, mAb 6.25 ug/ml
[28] = molecular target: Sm; assay: Athena autoantigen assay, mAb 6.25 ug/ml
[29] = molecular target: Jo 1; assay: Athena autoantigen assay, mAb 6.25 ug/ml
[30] = molecular target: SSB; assay: Athena autoantigen assay, mAb 6.25 ug/ml
[31] = molecular target: RNP; assay: Athena autoantigen assay, mAb 6.25 ug/ml
[32] = molecular target: Histone; assay: Athena autoantigen assay, mAb 6.25 ug/ml
[33] = molecular target: deglycosylated JRFL gp140 CF (HIV-1); assay: SPR, MAb on the surface, Env injected; JRFL wt DEG 500 (PNGase 500 U/µg)
[34] = molecular target: deglycosylated JRFL gp140 CF (HIV-1); assay: SPR, MAb on the surface, Env injected; JRFL wt DEG 500 (PNGase 500 U/µg); Koff (x10^-3 s-1)
[35] = molecular target: SSA; assay: Athena autoantigen assay, mAb 25 ug/ml
[36] = molecular target: Scl 70; assay: Athena autoantigen assay, mAb 25 ug/ml
[37] = molecular target: Sm; assay: Athena autoantigen assay, mAb 25 ug/ml
[38] = molecular target: Jo 1; assay: Athena autoantigen assay, mAb 25 ug/ml
[39] = molecular target: SSB; assay: Athena autoantigen assay, mAb 25 ug/ml
[40] = molecular target: RNP; assay: Athena autoantigen assay, mAb 25 ug/ml
[41] = molecular target: Histone; assay: Athena autoantigen assay, mAb 25 ug/ml
[42] = molecular target: JRFL gp140 (HIV-1); assay: SPR, MAb on the surface, Env injected; JRFFL wt (not deglycosylated)
[43] = molecular target: deglycosylated JRFL gp140 CF (HIV-1); assay: SPR, MAb on the surface, Env injected; JRFL wt DEG 5 (PNGase 5 U/µg)
[44] = molecular target: deglycosylated JRFL gp140 CF (HIV-1); assay: SPR, MAb on the surface, Env injected; JRFL wt DEG 20 (PNGase 20 U/µg)
[45] = molecular target: JRFL gp140 (HIV-1); assay: SPR, MAb on the surface, Env injected; JRFFL wt (not deglycosylated); Kon (x10^3 M-1s-1)
[46] = molecular target: deglycosylated JRFL gp140 CF (HIV-1); assay: SPR, MAb on the surface, Env injected; JRFL wt DEG 5 (PNGase 5 U/µg); Koff (x10^-3 s-1)
[47] = molecular target: RNP; assay: Athena autoantigen assay, mAb 50 ug/ml
[48] = molecular target: HV00044 (6240 TZ5 140C) (HIV-1); assay: surface plasmon resonance; five sensorgrams with fitted curves, highest rising to about 650 RU with almost no dissociation up to 1000 s
[49] = molecular target: Env (gp120) of HIV-1 JRFL.N160K.E168K (HIV-1); assay: cell-based or functional assay
[50] = molecular target: Env (gp120) of HIV-1 7165.18.N160K (HIV-1); assay: cell-based or functional assay
[51] = molecular target: Env (gp120) of HIV-1 JRFL.E168K (HIV-1); assay: cell-based or functional assay
[52] = molecular target: Env (gp120) of HIV-1 Q23.17.N160K (HIV-1); assay: cell-based or functional assay
[53] = molecular target: Env (gp120) of HIV-1 isolate 7165.18 (HIV-1); assay: cell-based or functional assay
[54] = molecular target: Env (gp120) of HIV-1 isolate JRCSF (HIV-1) (UniProt P20871); assay: cell-based or functional assay
[55] = molecular target: Env (gp120) of HIV-1 JRCSF.N160K (HIV-1) (UniProt P20871); assay: cell-based or functional assay
[56] = molecular target: Env (gp120) of HIV-1 isolate JRFL (virus) (HIV-1); assay: cell-based or functional assay
[57] = molecular target: Env (gp120) of HIV-1 isolate Q23.17 (HIV-1); assay: cell-based or functional assay

Sequence of recombinant human kynureninase (rhKYNU) (human) (Q16719 whole entry): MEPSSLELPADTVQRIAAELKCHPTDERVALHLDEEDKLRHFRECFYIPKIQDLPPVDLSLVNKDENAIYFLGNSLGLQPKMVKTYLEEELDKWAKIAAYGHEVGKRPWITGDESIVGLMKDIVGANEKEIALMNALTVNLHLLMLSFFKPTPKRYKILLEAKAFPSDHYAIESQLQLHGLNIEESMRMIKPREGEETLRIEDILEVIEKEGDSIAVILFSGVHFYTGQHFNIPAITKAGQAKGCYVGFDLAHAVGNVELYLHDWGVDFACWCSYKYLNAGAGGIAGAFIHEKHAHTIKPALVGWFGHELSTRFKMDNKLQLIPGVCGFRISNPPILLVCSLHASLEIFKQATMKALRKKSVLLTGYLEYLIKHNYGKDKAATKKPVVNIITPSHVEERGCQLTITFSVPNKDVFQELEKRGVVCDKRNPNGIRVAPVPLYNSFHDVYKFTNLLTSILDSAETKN
Sequence of Jo 1 (P12081 2-509): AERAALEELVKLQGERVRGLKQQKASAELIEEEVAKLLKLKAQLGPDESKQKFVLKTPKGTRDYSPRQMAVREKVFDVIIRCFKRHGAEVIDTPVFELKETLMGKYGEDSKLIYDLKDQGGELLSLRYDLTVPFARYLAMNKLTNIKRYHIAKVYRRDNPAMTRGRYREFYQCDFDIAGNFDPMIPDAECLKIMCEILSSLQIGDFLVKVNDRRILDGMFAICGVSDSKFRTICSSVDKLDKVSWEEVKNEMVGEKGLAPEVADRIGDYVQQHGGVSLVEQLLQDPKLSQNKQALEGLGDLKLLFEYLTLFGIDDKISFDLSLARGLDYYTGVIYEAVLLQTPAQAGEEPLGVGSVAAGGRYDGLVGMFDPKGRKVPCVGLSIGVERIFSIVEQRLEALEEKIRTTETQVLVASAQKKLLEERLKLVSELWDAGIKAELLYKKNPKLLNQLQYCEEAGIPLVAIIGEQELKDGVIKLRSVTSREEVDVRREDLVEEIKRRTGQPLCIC
Sequence of SSB (P05455 whole entry): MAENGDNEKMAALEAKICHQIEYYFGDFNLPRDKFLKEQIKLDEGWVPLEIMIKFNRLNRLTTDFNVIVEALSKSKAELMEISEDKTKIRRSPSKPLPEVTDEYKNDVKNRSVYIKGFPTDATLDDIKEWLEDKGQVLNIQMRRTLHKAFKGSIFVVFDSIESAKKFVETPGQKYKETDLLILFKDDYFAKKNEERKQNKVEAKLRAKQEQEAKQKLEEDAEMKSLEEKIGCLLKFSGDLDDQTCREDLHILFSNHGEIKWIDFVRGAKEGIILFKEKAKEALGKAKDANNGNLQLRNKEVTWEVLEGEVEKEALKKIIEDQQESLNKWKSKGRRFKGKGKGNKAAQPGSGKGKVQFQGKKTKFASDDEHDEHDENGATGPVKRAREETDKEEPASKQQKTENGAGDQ

1b12 original (antibody)
Reactivity in Luminex Units (Luminex units) [1]: 5110

2F5 (antibody)
EC50 (read off the curve) [2]: 0.05 µg/mL | EC50 (read off the curve) [3]: 0.05 µg/mL | EC50 (read off the curve) [4]: 0.03 µg/mL | Kd [5]: 0.21 nM | koff [5]: 9e-06 s⁻¹ | Reactivity in Luminex Units (Luminex units) [1]: 9240 | Reactivity in Luminex Units (Luminex units) [6]: 32700

4E10 (antibody)
Athena autoreactivity score [7]: 169 | Athena autoreactivity score [8]: 3 | Athena autoreactivity score [9]: 5 | Athena autoreactivity score [10]: 87 | Athena autoreactivity score [11]: 124 | Athena autoreactivity score [12]: 9 | Athena autoreactivity score [13]: 160 | koff [14]: 0.00099 s⁻¹ | koff [15]: 0.0013 s⁻¹ | kon [16]: 7400 M⁻¹ s⁻¹ | kon [17]: 21000 M⁻¹ s⁻¹ | Kd [18]: 0.73 nM | koff [18]: 2.5e-05 s⁻¹ | kon [19]: 27000 M⁻¹ s⁻¹ | Athena autoreactivity score [20]: 306 | Athena autoreactivity score [21]: 156 | Athena autoreactivity score [22]: 254 | Athena autoreactivity score [23]: 333 | background subtracted RFUs [24]: 89.2 RFU | background subtracted RFUs [25]: 0 RFU | Athena autoreactivity score [26]: 115 | Athena autoreactivity score [27]: 2 | Athena autoreactivity score [28]: 4 | Athena autoreactivity score [29]: 65 | Athena autoreactivity score [30]: 93 | Athena autoreactivity score [31]: 6 | Athena autoreactivity score [32]: 113 | Kd [33]: 50 nM | koff [34]: 0.001 s⁻¹ | Athena autoreactivity score [35]: 247 | Athena autoreactivity score [36]: 4 | Athena autoreactivity score [37]: 7 | Athena autoreactivity score [38]: 138 | Athena autoreactivity score [39]: 206 | Athena autoreactivity score [40]: 15 | Athena autoreactivity score [41]: 274 | Kd [42]: 2200 nM | Kd [43]: 135 nM | Kd [44]: 40 nM | kon [45]: 600 M⁻¹ s⁻¹ | koff [46]: 0.001 s⁻¹

17b original (CCR5 binding site antibody)
Reactivity in Luminex Units (Luminex units) [6]: 1430

CH02 (antibody)
Athena autoreactivity score [7]: 5 | Athena autoreactivity score [8]: 1.5 | Athena autoreactivity score [9]: 2.5 | Athena autoreactivity score [10]: 1 | Athena autoreactivity score [11]: 3.5 | Athena autoreactivity score [12]: 6 | Athena autoreactivity score [13]: 8.5 | background subtracted RFUs [24]: 333 RFU | background subtracted RFUs [25]: 0.3 RFU | Athena autoreactivity score [26]: 5 | Athena autoreactivity score [27]: 2 | Athena autoreactivity score [28]: 2.5 | Athena autoreactivity score [29]: 1.5 | Athena autoreactivity score [30]: 5 | Athena autoreactivity score [31]: 5 | Athena autoreactivity score [32]: 7 | Athena autoreactivity score [35]: 6 | Athena autoreactivity score [36]: 2 | Athena autoreactivity score [37]: 3 | Athena autoreactivity score [38]: 1.5 | Athena autoreactivity score [39]: 4.5 | Athena autoreactivity score [40]: 9 | Athena autoreactivity score [41]: 11.5

CH03 (antibody)
Athena autoreactivity score [7]: 6 | Athena autoreactivity score [8]: 8 | Athena autoreactivity score [9]: 9 | Athena autoreactivity score [10]: 4 | Athena autoreactivity score [11]: 6 | Athena autoreactivity score [12]: 74 | Athena autoreactivity score [13]: 359 | Athena autoreactivity score [47]: 132 | Athena autoreactivity score [23]: 844 | background subtracted RFUs [24]: 2910 RFU | background subtracted RFUs [25]: 1 RFU | Athena autoreactivity score [26]: 5 | Athena autoreactivity score [27]: 4 | Athena autoreactivity score [28]: 7 | Athena autoreactivity score [29]: 3 | Athena autoreactivity score [30]: 5 | Athena autoreactivity score [31]: 51 | Athena autoreactivity score [32]: 231 | Athena autoreactivity score [35]: 6 | Athena autoreactivity score [36]: 7 | Athena autoreactivity score [37]: 10 | Athena autoreactivity score [38]: 4 | Athena autoreactivity score [39]: 4 | Athena autoreactivity score [40]: 70 | Athena autoreactivity score [41]: 386

CH04 (antibody)
background subtracted RFUs [24]: 0.5 RFU | background subtracted RFUs [25]: 2.5 RFU

CH05 (antibody)
background subtracted RFUs [24]: 1.3 RFU | background subtracted RFUs [25]: 5.5 RFU

PG9 (antibody)
Kd [48]: 0.75 nM | background subtracted RFUs [24]: 0 RFU | background subtracted RFUs [25]: 0 RFU | IC50 (virus neutralization) [49]: > 50 µg/mL | IC80 (virus neutralization) [49]: > 50 µg/mL | IC50 (virus neutralization) [50]: > 50 µg/mL | IC80 (virus neutralization) [50]: > 50 µg/mL | IC50 (virus neutralization) [51]: 0.008 µg/mL | IC80 (virus neutralization) [51]: 0.055 µg/mL | IC50 (virus neutralization) [52]: > 50 µg/mL | IC80 (virus neutralization) [52]: > 50 µg/mL | IC50 (virus neutralization) [53]: > 50 µg/mL | IC80 (virus neutralization) [53]: > 50 µg/mL | IC50 (virus neutralization) [54]: 0.003 µg/mL | IC80 (virus neutralization) [54]: 0.008 µg/mL | IC50 (virus neutralization) [55]: > 50 µg/mL | IC80 (virus neutralization) [55]: > 50 µg/mL | IC50 (virus neutralization) [56]: > 50 µg/mL | IC80 (virus neutralization) [56]: > 50 µg/mL | IC50 (virus neutralization) [57]: 0.002 µg/mL | IC80 (virus neutralization) [57]: 0.005 µg/mL

PG16 (antibody)
background subtracted RFUs [24]: 0 RFU | background subtracted RFUs [25]: 0 RFU | IC50 (virus neutralization) [49]: > 50 µg/mL | IC80 (virus neutralization) [49]: > 50 µg/mL | IC50 (virus neutralization) [50]: > 50 µg/mL | IC80 (virus neutralization) [50]: > 50 µg/mL | IC50 (virus neutralization) [51]: 0.003 µg/mL | IC80 (virus neutralization) [51]: 0.015 µg/mL | IC50 (virus neutralization) [52]: > 50 µg/mL | IC80 (virus neutralization) [52]: > 50 µg/mL | IC50 (virus neutralization) [53]: 11.8 µg/mL | IC80 (virus neutralization) [53]: > 50 µg/mL | IC50 (virus neutralization) [54]: 0.003 µg/mL | IC80 (virus neutralization) [54]: 0.012 µg/mL | IC50 (virus neutralization) [55]: > 50 µg/mL | IC80 (virus neutralization) [55]: > 50 µg/mL | IC50 (virus neutralization) [56]: > 50 µg/mL | IC80 (virus neutralization) [56]: > 50 µg/mL | IC50 (virus neutralization) [57]: 0.001 µg/mL | IC80 (virus neutralization) [57]: 0.003 µg/mL

Synagis (anti-RSV control mAb) (antibody)
background subtracted RFUs [24]: 0.5 RFU | background subtracted RFUs [25]: 1 RFU
